The record followed here is US20160160263.

Data set [1] has as its target T1, TIAH/LH, MMP2 selective substrate.
T1 chain: TIAHLH

Data set [2] deals with T2, YGRAAA (SEQ ID NO: 17), uPA selective substrate.
T2 chain: YGRAAA

B1: MMP-2 (protein)
chain: YNFFPRKPKWDKNQITYRIIGYTPDLDPETVDDAFARAFQVWSDVTPLRFSRIHDGEADIMINFGRWEHGDGYPFDGKDGLLAHAFAPGTGVGGDSHFDDDELWTLGEGQVVRVKYGNADGEYCKFPFLFNGKEYNSCTDTGRSDGFLWCSTTYNFEKDGKYGFCPHEALFTMGGNAEGQPCKFPFRFQGTSYDSCTTEGRTDGYRWCGTTEDYDRDKKYGFCPETAMSTVGGNSEGAPCVFPFTFLGNKYESCTSAGRSDGKMWCATTANYDDDRKWGFCPDQGYSLFLVAAHEFGHAMGLEHSQDPGALMAPIYTYTKNFRLSQDDIKGIQELYGASPDIDLGTGPTPTLGPVTPEICKQDIVFDGIAQIRGEIFFFKDRFIWRTVTPRDKPMGPLLVATFWPELPEKIDAVYEAPQEEKAVFFAGNEYWIYSASTLERGYPKPLTSLGLPPDVQRVDAAFNWSKNKKTYIFAGDKFWRYNEVKKKMDPGFPKLIADAWNAIPDNLDAVVDLQGGGHSYFFKGAYYLKLENQSLKSVKFGSIKSDWLGC
On to B1, for which, in data set [1], the “cleavage of ACPP substrate by protease” value is “selectively cleaved by MMP-2 versus 9 and 14”.

B2: tissue plasminogen activator (tPA) (protein)
chain: SYQVICRDEKTQMIYQQHQSWLRPVLRSNRVEYCWCNSGRAQCHSVPVKSCSEPRCFNGGTCQQALYFSDFVCQCPEGFAGKCCEIDTRATCYEDQGISYRGTWSTAESGAECTNWNSSALAQKPYSGRRPDAIRLGLGNHNYCRNPDRDSKPWCYVFKAGKYSSEFCSTPACSEGNSDCYFGNGSAYRGTHSLTESGASCLPWNSMILIGKVYTAQNPSAQALGLGKHNYCRNPDGDAKPWCHVLKNRRLTWEYCDVPSCSTCGLRQYSQPQFRIKGGLFADIASHPWQAAIFAKHRRSPGERFLCGGILISSCWILSAAHCFQERFPPHHLTVILGRTYRVVPGEEEQKFEVEKYIVHKEFDDDTYDNDIALLQLKSDSSRCAQESSVVRTVCLPPADLQLPDWTECELSGYGKHEALSPFYSERLKEAHVRLYPSSRCTSQHLLNRTVTDNMLCAGDTRSGGPQANLHDACQGDSGGPLVCLNDGRMTLVGIISWGLGCGQKDVPGVYTKVTNYLDWIRDNMRP
Consider B2, for which the “cleavage of ACPP substrate by protease” value in data set [2] is reported as “to a lesser extent by tPA”.
